The record followed here is patent US20230357422A1 (published 2023).

As a reminder, the Kd is the equilibrium constant for the complex coming apart.

B1: HZ-L-Yr-13&14-16-2 (Fc fusion)
chain: QVQLVESGGGVVQPGRSLRLSCAASGSTFSIVAMGWYRQAPGKGLELVASIITGDGDTNYADSVKGRFTISRDNSKNTMYLQMNSLRAEDTAVYYCYARTGYGSSWLMGHEYDYWGQGTQVTVSSTHTCPPCPAPEAAGGPSVFLFPPKPKDTLMISRTPEVTCVVVDVSHEDPEVKFNWYVDGVEVHNAKTKPREEQYNSTYRVVSVLTVLHQDWLNGKEYKCKVSNKALPAPIEKTISKAKGQPREPQVYTLPPSREEMTKNQVSLTCLVKGFYPSDIAVEWESNGQPENNYKTTPPVLDSDGSFFLYSKLTVDKSRWQQGNVFSCSVMHEALHNHYTQKSLSLSPG
B2: A-Ye-20 (Fc fusion)
chain: QVQLQESGGGLVQAGGSLRLSCAASGFTFDDYAIGWFRQAPGKEREGVLCISSSGGSTYYADSVKGRFTISRDNAKNTVYLQMTNLKPEDTAVYLCGAPRDCSYYTSDDYWGQGTQVTVSSTHTCPPCPAPEAAGGPSVFLFPPKPKDTLMISRTPEVTCVVVDVSHEDPEVKFNWYVDGVEVHNAKTKPREEQYNSTYRVVSVLTVLHQDWLNGKEYKCKVSNKALPAPIEKTISKAKGQPREPQVYTLPPSREEMTKNQVSLTCLVKGFYPSDIAVEWESNGQPENNYKTTPPVLDSDGSFFLYSKLTVDKSRWQQGNVFSCSVMHEALHNHYTQKSLSLSPG
B3: A-Ye-27 (Fc fusion)
chain: QVQLQESGGGLVQPGGSLRLSCAASGFSLGLYAIGWFRQAPGKEREWVSCIMSSDSSAYYADSVKGRFTVSRDNAKNTVYLQMTNLKPEDTAVYLCGAPRDCSRYSSDDYWGQGTQVTVSSTHTCPPCPAPEAAGGPSVFLFPPKPKDTLMISRTPEVTCVVVDVSHEDPEVKFNWYVDGVEVHNAKTKPREEQYNSTYRVVSVLTVLHQDWLNGKEYKCKVSNKALPAPIEKTISKAKGQPREPQVYTLPPSREEMTKNQVSLTCLVKGFYPSDIAVEWESNGQPENNYKTTPPVLDSDGSFFLYSKLTVDKSRWQQGNVFSCSVMHEALHNHYTQKSLSLSPG
B4: A-Ye-25 (Fc fusion)
chain: QVQLQESGGGLVQVGGSLRLSCAASGFTFDDYAIGWFRQAPGKEREGVLCISSSGGSTYYADSLKGRFTISRDNAKNTVYLQMTNLKPEDTAVYLCGAPRDCSLYTGDDYWGQGTQVTVSSTHTCPPCPAPEAAGGPSVFLFPPKPKDTLMISRTPEVTCVVVDVSHEDPEVKFNWYVDGVEVHNAKTKPREEQYNSTYRVVSVLTVLHQDWLNGKEYKCKVSNKALPAPIEKTISKAKGQPREPQVYTLPPSREEMTKNQVSLTCLVKGFYPSDIAVEWESNGQPENNYKTTPPVLDSDGSFFLYSKLTVDKSRWQQGNVFSCSVMHEALHNHYTQKSLSLSPG
B5: L-Yr-13&14-06 (Fc fusion)
chain: QVQLQESGGGLVEAGGSLRLSCAASGSIFSINVMGWYRQAPGKQRELVAVITSDYSTNYADSVKGRFTISRDNAKNTVYLQMNSLKPEDTAVYHCAATGYGSSPWYWGQGTQVTVSSTHTCPPCPAPEAAGGPSVFLFPPKPKDTLMISRTPEVTCVVVDVSHEDPEVKFNWYVDGVEVHNAKTKPREEQYNSTYRVVSVLTVLHQDWLNGKEYKCKVSNKALPAPIEKTISKAKGQPREPQVYTLPPSREEMTKNQVSLTCLVKGFYPSDIAVEWESNGQPENNYKTTPPVLDSDGSFFLYSKLTVDKSRWQQGNVFSCSVMHEALHNHYTQKSLSLSPG
B6: L-Yr-13&14-03 (Fc fusion)
chain: QVQLQESGGGLVQPGESLRLSCDSGRIFSYNFMGWYRQAPGKQRELVASITWGGTIKYADSVKGRFTISRHDAENTVYLQMNSLKSEDTAVYYCHAATDTGVIYWGQGTQVTVSSTHTCPPCPAPEAAGGPSVFLFPPKPKDTLMISRTPEVTCVVVDVSHEDPEVKFNWYVDGVEVHNAKTKPREEQYNSTYRVVSVLTVLHQDWLNGKEYKCKVSNKALPAPIEKTISKAKGQPREPQVYTLPPSREEMTKNQVSLTCLVKGFYPSDIAVEWESNGQPENNYKTTPPVLDSDGSFFLYSKLTVDKSRWQQGNVFSCSVMHEALHNHYTQKSLSLSPG
B7: L-Yr-13&14-05 (Fc fusion)
chain: QVQLQESGGGLVQAGGSLRLSCAASGRTLSGYVMGWFRQASGKERELVAAISSGGSTYYEDSVKGRFTISRDNAKNTMYLQMNSLKPEDTAVYYCAADPRRLTGLYDYWGQGTQVTVSSTHTCPPCPAPEAAGGPSVFLFPPKPKDTLMISRTPEVTCVVVDVSHEDPEVKFNWYVDGVEVHNAKTKPREEQYNSTYRVVSVLTVLHQDWLNGKEYKCKVSNKALPAPIEKTISKAKGQPREPQVYTLPPSREEMTKNQVSLTCLVKGFYPSDIAVEWESNGQPENNYKTTPPVLDSDGSFFLYSKLTVDKSRWQQGNVFSCSVMHEALHNHYTQKSLSLSPG
B8: A-Ye-14 (Fc fusion)
chain: QVQLQESGGGLVQPGGSLRLSCAASGFSLGLYAIGWFRQAPGKEREWVSCIMSSDSSAYYADSVKGRFTVSRDNAKNTVYLQMNRLKPEDTAVYYCAAPQSDCFHYSENDYWGQGTQVTVSSTHTCPPCPAPEAAGGPSVFLFPPKPKDTLMISRTPEVTCVVVDVSHEDPEVKFNWYVDGVEVHNAKTKPREEQYNSTYRVVSVLTVLHQDWLNGKEYKCKVSNKALPAPIEKTISKAKGQPREPQVYTLPPSREEMTKNQVSLTCLVKGFYPSDIAVEWESNGQPENNYKTTPPVLDSDGSFFLYSKLTVDKSRWQQGNVFSCSVMHEALHNHYTQKSLSLSPG
B9: A-Ye-21 (Fc fusion)
chain: QVQLQESGGGLVQPGGSLRLSCAASGFSLDYYAIGWFRQAPGKEREWVSCIMSSDSSAYYADSVKGRFTISRDNAKNLVYLRMNSLKPEDTAVYYCTAPRSDCFHYGENDYWGQGTQVTVSSTHTCPPCPAPEAAGGPSVFLFPPKPKDTLMISRTPEVTCVVVDVSHEDPEVKFNWYVDGVEVHNAKTKPREEQYNSTYRVVSVLTVLHQDWLNGKEYKCKVSNKALPAPIEKTISKAKGQPREPQVYTLPPSREEMTKNQVSLTCLVKGFYPSDIAVEWESNGQPENNYKTTPPVLDSDGSFFLYSKLTVDKSRWQQGNVFSCSVMHEALHNHYTQKSLSLSPG
B10: A-Ye-19 (Fc fusion)
chain: QVQLQESGGGLVQAGGSLRLSCAASGFSLGLYAIGWFRQAPGKEREWVSCIMSSDSSAYYADSVKGRFTVSRDNAKNTVYLQMNRLKPEDTAVYYCAAPQSDCFHYSENDYWGQGTQVTVSSTHTCPPCPAPEAAGGPSVFLFPPKPKDTLMISRTPEVTCVVVDVSHEDPEVKFNWYVDGVEVHNAKTKPREEQYNSTYRVVSVLTVLHQDWLNGKEYKCKVSNKALPAPIEKTISKAKGQPREPQVYTLPPSREEMTKNQVSLTCLVKGFYPSDIAVEWESNGQPENNYKTTPPVLDSDGSFFLYSKLTVDKSRWQQGNVFSCSVMHEALHNHYTQKSLSLSPG
B11: A-Ye-23 (Fc fusion)
chain: QVQLQESGGGLVQPGGSLRLSCAASGFSLGLYAIAWFRQAPGKEREWVSCIEKSDSSAYYADSVKGRFTVSRDNAKNTVDLQMNRLSPEDTAVYYCAAPQSDCFHYKENDYWGQGTQVTVSSTHTCPPCPAPEAAGGPSVFLFPPKPKDTLMISRTPEVTCVVVDVSHEDPEVKFNWYVDGVEVHNAKTKPREEQYNSTYRVVSVLTVLHQDWLNGKEYKCKVSNKALPAPIEKTISKAKGQPREPQVYTLPPSREEMTKNQVSLTCLVKGFYPSDIAVEWESNGQPENNYKTTPPVLDSDGSFFLYSKLTVDKSRWQQGNVFSCSVMHEALHNHYTQKSLSLSPG
B12: A-Ye-22 (Fc fusion)
chain: QVQLQESGGGLVQAGGSLRLSCAASGFSLDYYAIGWFRQAPGKEREWVSCITASDSSAYYADSVKGRFTISRDNAKNTVYLRMNSLKPEDTAVYYCAAPRSDCFHYGENDYWGQGTQVTVSSTHTCPPCPAPEAAGGPSVFLFPPKPKDTLMISRTPEVTCVVVDVSHEDPEVKFNWYVDGVEVHNAKTKPREEQYNSTYRVVSVLTVLHQDWLNGKEYKCKVSNKALPAPIEKTISKAKGQPREPQVYTLPPSREEMTKNQVSLTCLVKGFYPSDIAVEWESNGQPENNYKTTPPVLDSDGSFFLYSKLTVDKSRWQQGNVFSCSVMHEALHNHYTQKSLSLSPG
B13: L-Yr-13&14-01 (Fc fusion)
chain: QVQLQESGGGLVQAGGSLRLSCAASGSFNAMGWWRQAPGKQREFVAIITRDGSTNLADSVKGRFTISSDNAKNTWFLQMNSLKPEDTAVYYCSASDYGSSLYYWGQGTQVTVSSTHTCPPCPAPEAAGGPSVFLFPPKPKDTLMISRTPEVTCVVVDVSHEDPEVKFNWYVDGVEVHNAKTKPREEQYNSTYRVVSVLTVLHQDWLNGKEYKCKVSNKALPAPIEKTISKAKGQPREPQVYTLPPSREEMTKNQVSLTCLVKGFYPSDIAVEWESNGQPENNYKTTPPVLDSDGSFFLYSKLTVDKSRWQQGNVFSCSVMHEALHNHYTQKSLSLSPG

T2 sequence (Q07011 24-186 limits assumed): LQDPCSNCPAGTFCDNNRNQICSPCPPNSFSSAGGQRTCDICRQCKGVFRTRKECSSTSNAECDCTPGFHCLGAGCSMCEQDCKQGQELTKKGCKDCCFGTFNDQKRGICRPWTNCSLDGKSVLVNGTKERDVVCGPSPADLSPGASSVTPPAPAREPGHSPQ

The target of one assay is T1, human 4-1BB on CHO cells (human, UniProt Q07011 24-255).
T1 construct: whole, on cells; also called CHO-h4-1BB cells; human 4-1BB CHO-S cells
T1 sequence (Q07011 24-255): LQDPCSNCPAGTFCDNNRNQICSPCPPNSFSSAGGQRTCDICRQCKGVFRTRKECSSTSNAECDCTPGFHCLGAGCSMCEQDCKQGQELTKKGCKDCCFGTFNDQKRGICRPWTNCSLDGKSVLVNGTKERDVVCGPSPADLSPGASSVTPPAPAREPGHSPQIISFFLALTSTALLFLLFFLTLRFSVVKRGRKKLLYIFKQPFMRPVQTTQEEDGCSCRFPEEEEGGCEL
The assay is described as follows: flow cytometry on CHO cells expressing human 4-1BB. As to the method: CHO cells overexpressing human 4-1BB (CHO-h4-1BB cells) were generated by transfection of pCHO1.0 vector (purchased from Invitrogen) encoding human 4-1BB cDNA cloned into MCS (multiple cloning site). The cell density of the expanded CHO-h4-1BB cells was adjusted to 2×10⁶ cells/ml, added at 100 μl/well to a 96-well flow plate, and centrifuged for later use. The purified 4-1BB antibody was diluted with PBS by 3-fold dilution starting from 400 nM for a total of 12 points. The above-mentioned diluted sample was added at 100 μl/well to the above-mentioned 96-well flow plate with cells, incubated at 4° C. for 30 min, and washed twice with PBS. Goat F(ab′)2 anti-human IgG-Fc (PE) (purchased from Abcam) diluted 100 times with PBS was added at 100 μl/well, incubated at 4° C. for 30 min, and washed twice with PBS. The cells resuspended with PBS was added at 100 μl/well, and detected on CytoFlex (Bechman) flow cytometer, and the corresponding MFI was calculated.
Background: In flow cytometry, cells or beads pass a laser one at a time.
In the case of B1, the binding result was “binds”.

Another assay concerns the target T2, 4-1BB antigen (human, UniProt Q07011 24-186, limits assumed).
T2 construct: also called human 4-1BB antigen; human 4-1BB protein
The assay is described as follows: BLI (ForteBio), antibody on AHQ sensor, 100 nM 4-1BB antigen, 1:1 model. The method, then:
ForteBio affinity determination was performed according to the existing method (Estep, P et al., Solution-based measurement of high-throughput antibody-antigen affinity and epitope classification, MAbs, 2013.5(2):p. 270-8). Briefly, the sensor was equilibrated offline for 30 min in the assay buffer, then the baseline was established by detection online for 60 s, and the purified antibody obtained as described above was loaded onto the AHQ sensor online. Then, the sensor was put into 100 nM 4-1BB antigen to act for 5 minutes, and the sensor was transferred to PBS and dissociated for 5 minutes. Analysis of kinetics was performed using a 1:1 binding model.
(BLI is a label-free optical method that tracks binding on a fibre tip over time.)
Molecule B2 returned a Kd of 26.8 nM. B3 had a Kd of 7.55 nM. For B4, binding was characterised by a dissociation constant (Kd) of 13.5 nM. B5 returned a Kd of 20.6 nM. For the molecule B6, the Kd came out at 19.1 nM.

Turning to B7, the Kd was found to be 33.5 nM. As for B8, the affinity, expressed as Kd, was 14.5 nM. Still for that read-out and setting: next, B9: 23 nM. The same measure, in the same setting: the same measure for B10: 13 nM. With B11, the Kd was 23.4 nM.

B12 showed a Kd of 22.6 nM.

Regarding B13, the Kd is 19.5 nM.
